Experimental data: patent US20200262877A1, “ION CHANNEL-BINDING PEPTIDES AND METHODS OF USE THEREOF” (priority 2017, published 2020)

Legend:
5HT3a = biological target: T1, 5HT3a (Homo sapiens, UniProt P46098); assay: Ion channel panel (IonWorks Barracuda): 5HT3a; format: cell-based
T1 construct: host or cells: HEK293 or CHO
T1 sequence (P46098 whole entry, looked up): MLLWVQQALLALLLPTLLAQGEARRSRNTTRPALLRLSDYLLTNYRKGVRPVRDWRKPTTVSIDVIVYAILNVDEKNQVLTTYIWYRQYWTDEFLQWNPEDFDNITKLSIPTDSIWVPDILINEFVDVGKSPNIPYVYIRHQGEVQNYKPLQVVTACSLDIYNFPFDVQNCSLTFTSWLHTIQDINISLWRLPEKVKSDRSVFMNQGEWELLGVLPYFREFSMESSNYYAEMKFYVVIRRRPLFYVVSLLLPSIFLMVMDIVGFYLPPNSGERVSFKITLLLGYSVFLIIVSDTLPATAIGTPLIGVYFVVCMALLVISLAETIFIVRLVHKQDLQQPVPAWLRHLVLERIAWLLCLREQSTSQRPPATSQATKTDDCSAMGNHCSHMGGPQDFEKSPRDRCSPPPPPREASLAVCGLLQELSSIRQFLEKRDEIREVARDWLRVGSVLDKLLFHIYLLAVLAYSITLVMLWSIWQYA
Method in brief: (§1)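 Transfected HEK293 or CHO cells were exposed for at least 5 min to peptides at 200 nM and 20 μM final, tested in duplicate, in HEPES-buffered physiological saline. Activation was taken as peptide-plus-agonist current over control current ×100, and inhibition as 1 minus that ratio ×100. Each channel's control was its own reference compound.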

hERG = hERG (Homo sapiens, UniProt Q12809); assay: in vitro; details: 100% = no change, <100% = inhibition
Method in brief: as §1

Nav1.5 = Nav1.5 (Homo sapiens, UniProt Q14524); assay: in vitro; details: 100% = no change; for Activity of Nav1.5 with peptide, expressed as a percentage of the reference compound: peptide at 0.2 μM; for Activity of Nav1.5 with peptide (percentage of the reference compound): peptide at 20 μM
Sequence of Nav1.5 (Q14524 whole entry): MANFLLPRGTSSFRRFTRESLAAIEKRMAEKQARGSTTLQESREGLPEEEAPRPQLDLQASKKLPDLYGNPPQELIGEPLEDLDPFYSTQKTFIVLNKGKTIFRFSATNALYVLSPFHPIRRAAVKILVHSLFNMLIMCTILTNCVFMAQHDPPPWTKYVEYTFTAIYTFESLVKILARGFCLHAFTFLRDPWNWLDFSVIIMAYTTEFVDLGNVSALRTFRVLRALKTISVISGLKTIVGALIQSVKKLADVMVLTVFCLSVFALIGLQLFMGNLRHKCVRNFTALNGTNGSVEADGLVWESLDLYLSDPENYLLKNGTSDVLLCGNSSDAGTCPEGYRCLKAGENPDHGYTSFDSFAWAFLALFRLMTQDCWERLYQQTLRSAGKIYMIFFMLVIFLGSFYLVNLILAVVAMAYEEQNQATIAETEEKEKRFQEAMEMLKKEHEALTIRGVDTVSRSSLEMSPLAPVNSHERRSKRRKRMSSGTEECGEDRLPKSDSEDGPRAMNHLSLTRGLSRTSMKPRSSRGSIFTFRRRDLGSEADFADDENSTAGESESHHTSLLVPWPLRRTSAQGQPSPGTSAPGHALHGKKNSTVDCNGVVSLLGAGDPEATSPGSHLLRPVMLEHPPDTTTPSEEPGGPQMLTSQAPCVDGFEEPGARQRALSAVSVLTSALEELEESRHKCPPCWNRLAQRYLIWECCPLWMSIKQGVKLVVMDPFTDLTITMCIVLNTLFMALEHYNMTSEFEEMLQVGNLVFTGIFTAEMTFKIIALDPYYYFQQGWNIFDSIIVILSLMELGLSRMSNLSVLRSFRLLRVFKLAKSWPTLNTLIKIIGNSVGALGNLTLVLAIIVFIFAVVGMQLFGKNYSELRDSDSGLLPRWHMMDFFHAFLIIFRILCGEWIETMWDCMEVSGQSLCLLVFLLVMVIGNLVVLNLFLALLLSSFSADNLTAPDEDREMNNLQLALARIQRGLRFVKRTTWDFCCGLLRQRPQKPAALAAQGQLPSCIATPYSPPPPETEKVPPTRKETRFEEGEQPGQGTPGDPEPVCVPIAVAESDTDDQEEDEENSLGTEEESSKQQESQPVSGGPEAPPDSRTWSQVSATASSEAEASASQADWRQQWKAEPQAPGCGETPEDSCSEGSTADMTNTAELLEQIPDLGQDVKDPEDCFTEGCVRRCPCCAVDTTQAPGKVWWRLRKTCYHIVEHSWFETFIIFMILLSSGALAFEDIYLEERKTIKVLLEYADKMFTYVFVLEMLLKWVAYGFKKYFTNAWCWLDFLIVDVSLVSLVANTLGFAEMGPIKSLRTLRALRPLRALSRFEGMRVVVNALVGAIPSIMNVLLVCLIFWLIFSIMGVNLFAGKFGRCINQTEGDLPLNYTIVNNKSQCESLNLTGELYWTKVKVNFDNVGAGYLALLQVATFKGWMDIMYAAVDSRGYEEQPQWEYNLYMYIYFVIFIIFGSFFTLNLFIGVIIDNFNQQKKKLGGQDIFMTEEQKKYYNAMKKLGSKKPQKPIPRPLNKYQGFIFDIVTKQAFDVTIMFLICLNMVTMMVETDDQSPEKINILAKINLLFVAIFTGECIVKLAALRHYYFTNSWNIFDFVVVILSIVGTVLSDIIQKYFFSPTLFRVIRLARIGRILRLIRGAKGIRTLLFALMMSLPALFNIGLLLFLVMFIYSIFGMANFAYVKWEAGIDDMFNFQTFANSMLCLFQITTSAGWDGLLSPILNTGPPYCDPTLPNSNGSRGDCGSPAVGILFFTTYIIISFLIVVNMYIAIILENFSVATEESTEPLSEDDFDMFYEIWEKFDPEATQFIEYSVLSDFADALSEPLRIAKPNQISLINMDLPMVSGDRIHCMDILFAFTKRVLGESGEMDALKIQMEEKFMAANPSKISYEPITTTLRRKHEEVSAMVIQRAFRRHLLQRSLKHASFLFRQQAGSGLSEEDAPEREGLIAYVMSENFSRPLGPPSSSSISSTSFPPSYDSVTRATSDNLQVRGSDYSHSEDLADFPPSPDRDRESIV
Method in brief: as §1

NR2B = biological target: T2, NR2B (Homo sapiens, UniProt Q13224); assay: Ion channel panel (IonWorks Barracuda): NR2B; format: cell-based; details: 100% = no change, <100% = inhibition
T2 construct: host or cells: HEK293 or CHO
Method in brief: as §1

Kv1.2 = biological target: T3, Kv1.2 (Homo sapiens, UniProt P16389); assay: cell-based; format: cell-based; details: 100% = no change, <100% = inhibition
T3 construct: host or cells: HEK293 or CHO
Method in brief: as §1

Kv1.1 = biological target: T4, Kv1.1 (Homo sapiens, UniProt Q09470); assay: cell-based; format: cell-based; details: 100% = no change, <100% = inhibition
T4 construct: host or cells: HEK293 or CHO
Method in brief: as §1

Kv1.3 = biological target: T5, Kv1.3 (Homo sapiens, UniProt P22001); assay: cell-based; format: cell-based; details: 100% = no change, <100% = inhibition
T5 construct: host or cells: HEK293 or CHO
Method in brief: as §1

Kir2.1 = biological target: T6, Kir2.1 (Homo sapiens, UniProt P63252); assay: Ion channel panel (IonWorks Barracuda): Kir2.1; format: cell-based; details: 100% = no change, <100% = inhibition
T6 construct: host or cells: HEK293 or CHO
Method in brief: as §1

α4β2 = biological target: T7, α4β2 (Homo sapiens, UniProt P17787+P43681); assay: Ion channel panel (IonWorks Barracuda): α4β2; format: cell-based; details: 100% = no change, <100% = inhibition
T7 construct: host or cells: HEK293 or CHO
T7 sequence (P43681 29-627): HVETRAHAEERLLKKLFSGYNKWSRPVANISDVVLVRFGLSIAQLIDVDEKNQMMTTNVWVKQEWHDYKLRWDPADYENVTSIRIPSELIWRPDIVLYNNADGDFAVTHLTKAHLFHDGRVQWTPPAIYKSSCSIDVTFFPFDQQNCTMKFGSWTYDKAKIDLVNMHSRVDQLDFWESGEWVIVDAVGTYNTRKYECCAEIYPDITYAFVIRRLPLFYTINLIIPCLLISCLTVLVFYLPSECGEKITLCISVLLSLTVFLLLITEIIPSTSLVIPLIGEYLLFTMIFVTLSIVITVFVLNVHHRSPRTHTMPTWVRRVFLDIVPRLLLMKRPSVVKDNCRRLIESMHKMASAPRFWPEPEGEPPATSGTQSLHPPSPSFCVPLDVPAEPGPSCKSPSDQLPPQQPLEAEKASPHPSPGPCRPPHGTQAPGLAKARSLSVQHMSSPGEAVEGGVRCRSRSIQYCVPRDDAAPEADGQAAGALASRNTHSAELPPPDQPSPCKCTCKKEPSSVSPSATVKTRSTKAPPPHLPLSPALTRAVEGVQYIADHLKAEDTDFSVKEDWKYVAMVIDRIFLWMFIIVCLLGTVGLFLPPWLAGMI
T7 sequence (P17787 26-502): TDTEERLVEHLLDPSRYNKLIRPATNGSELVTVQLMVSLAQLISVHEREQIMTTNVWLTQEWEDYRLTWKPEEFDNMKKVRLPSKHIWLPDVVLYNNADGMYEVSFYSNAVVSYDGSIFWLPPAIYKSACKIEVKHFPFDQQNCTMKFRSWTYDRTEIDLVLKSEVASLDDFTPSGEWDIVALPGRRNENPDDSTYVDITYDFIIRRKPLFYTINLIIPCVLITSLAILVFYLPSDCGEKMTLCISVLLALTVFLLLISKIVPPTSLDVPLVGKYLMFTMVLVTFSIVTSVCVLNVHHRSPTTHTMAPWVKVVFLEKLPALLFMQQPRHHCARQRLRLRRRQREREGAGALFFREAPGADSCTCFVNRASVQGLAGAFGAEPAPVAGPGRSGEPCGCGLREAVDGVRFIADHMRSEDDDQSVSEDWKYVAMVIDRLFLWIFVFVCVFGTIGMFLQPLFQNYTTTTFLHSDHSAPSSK
Method in brief: as §1

Kv2.1 = biological target: T8, Kv2.1 (Homo sapiens, UniProt Q14721); assay: cell-based; details: 100% = no change, <100% = inhibition
T8 construct: host or cells: HEK293 or CHO
Method in brief: as §1

Cav2.1 = biological target: T9, Cav2.1 (Homo sapiens, UniProt O00555); assay: cell-based; details: 100% = no change, <100% = inhibition
T9 construct: host or cells: HEK293 or CHO
Method in brief: as §1

Cav2.2 = biological target: T10, Cav2.2 (Homo sapiens, UniProt Q00975); assay: cell-based; details: 100% = no change, <100% = inhibition
T10 construct: host or cells: HEK293 or CHO
Method in brief: as §1

GABA = assay: Ion channel panel (IonWorks Barracuda): GABA; format: cell-based; details: 100% = no change, <100% = inhibition
Method in brief: as §1

Nav1.7 = biological target: T11, Nav1.7 (Homo sapiens, UniProt Q15858); assay: cell-based; format: cell-based; details: 100% = no change; for Activity of Nav1.7 with peptide, expressed as a percentage of the reference compound: peptide at 0.2 μM; for Activity of Nav1.7 with peptide (percentage of the reference compound): peptide at 20 μM
T11 construct: host or cells: HEK293 or CHO
T11 sequence (Q15858 whole entry): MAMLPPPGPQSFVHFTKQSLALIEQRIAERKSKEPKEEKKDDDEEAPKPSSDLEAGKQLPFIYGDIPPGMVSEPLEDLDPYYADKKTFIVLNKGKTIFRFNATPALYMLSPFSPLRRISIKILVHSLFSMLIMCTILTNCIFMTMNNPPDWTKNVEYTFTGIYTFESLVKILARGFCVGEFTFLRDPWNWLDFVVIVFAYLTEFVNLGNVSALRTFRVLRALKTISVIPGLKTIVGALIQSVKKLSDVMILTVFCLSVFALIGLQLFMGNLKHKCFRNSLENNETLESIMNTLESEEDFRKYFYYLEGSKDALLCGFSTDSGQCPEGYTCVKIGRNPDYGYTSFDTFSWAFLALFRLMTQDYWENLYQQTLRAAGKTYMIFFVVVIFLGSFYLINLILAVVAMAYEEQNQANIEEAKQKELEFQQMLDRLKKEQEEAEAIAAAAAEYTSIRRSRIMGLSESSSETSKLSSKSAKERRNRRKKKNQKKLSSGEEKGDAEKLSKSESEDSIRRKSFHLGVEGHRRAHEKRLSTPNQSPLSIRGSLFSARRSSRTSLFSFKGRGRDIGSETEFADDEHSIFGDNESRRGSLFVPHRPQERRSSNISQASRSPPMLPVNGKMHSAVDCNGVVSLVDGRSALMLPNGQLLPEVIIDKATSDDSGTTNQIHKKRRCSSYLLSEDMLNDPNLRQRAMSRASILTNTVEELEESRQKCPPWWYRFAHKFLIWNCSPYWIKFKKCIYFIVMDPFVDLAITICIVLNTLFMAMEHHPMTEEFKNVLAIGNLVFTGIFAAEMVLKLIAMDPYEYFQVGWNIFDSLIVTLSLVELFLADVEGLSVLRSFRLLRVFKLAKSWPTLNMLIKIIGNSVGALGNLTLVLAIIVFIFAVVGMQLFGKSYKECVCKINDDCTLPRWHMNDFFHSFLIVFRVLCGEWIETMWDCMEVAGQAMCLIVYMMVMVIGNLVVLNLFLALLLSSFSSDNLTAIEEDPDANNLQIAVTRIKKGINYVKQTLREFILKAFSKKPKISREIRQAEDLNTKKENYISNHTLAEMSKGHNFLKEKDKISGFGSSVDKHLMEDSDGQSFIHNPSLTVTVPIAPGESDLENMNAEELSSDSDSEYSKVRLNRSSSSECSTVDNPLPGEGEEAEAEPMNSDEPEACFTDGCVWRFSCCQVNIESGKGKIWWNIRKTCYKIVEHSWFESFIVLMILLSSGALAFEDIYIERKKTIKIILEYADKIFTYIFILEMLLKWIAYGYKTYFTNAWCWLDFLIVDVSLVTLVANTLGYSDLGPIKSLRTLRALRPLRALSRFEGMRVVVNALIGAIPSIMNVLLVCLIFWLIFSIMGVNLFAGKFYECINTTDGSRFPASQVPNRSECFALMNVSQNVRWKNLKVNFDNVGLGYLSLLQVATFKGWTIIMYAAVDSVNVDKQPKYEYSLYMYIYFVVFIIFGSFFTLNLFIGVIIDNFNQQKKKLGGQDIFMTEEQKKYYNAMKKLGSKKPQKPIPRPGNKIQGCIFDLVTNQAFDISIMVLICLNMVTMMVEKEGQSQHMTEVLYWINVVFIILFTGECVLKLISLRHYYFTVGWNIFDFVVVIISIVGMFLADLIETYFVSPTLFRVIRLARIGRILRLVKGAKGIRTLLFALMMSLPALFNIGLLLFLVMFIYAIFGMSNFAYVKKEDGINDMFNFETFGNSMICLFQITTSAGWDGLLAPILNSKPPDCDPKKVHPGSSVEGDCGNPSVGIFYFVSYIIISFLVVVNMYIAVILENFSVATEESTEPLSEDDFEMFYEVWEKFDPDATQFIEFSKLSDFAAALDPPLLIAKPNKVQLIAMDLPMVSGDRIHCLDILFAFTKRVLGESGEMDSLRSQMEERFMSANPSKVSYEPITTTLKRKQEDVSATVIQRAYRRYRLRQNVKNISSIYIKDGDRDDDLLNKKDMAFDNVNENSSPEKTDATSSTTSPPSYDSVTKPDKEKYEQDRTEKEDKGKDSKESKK

TRPV1 = biological target: T12, TRPV1 (Homo sapiens, UniProt Q8NER1); assay: Ion channel panel (IonWorks Barracuda): TRPV1; format: cell-based; details: 100% = no change, <100% = inhibition
T12 construct: host or cells: HEK293 or CHO
Method in brief: as §1

α3β4 = biological target: T13, α3β4 (Homo sapiens, UniProt P30926+P32297); assay: Ion channel panel (IonWorks Barracuda): α3β4; format: cell-based; details: 100% = no change, <100% = inhibition
T13 construct: host or cells: HEK293 or CHO
Method in brief: as §1

TRPA1 = biological target: T14, TRPA1 (Homo sapiens, UniProt O75762); assay: Ion channel panel (IonWorks Barracuda): TRPA1; format: cell-based; details: 100% = no change, <100% = inhibition
T14 construct: host or cells: HEK293 or CHO
Method in brief: as §1

NR2A = biological target: T15, NR2A (Homo sapiens, UniProt Q12879); assay: Ion channel panel (IonWorks Barracuda): NR2A; format: cell-based; details: 100% = no change, <100% = inhibition
T15 construct: host or cells: HEK293 or CHO
Method in brief: as §1

[1] = first of two Nav1.5 columns (probably TP1)
[2] = second of two Nav1.5 columns (probably TP2)
[3] = first of two Nav1.7 columns (probably TP1)
[4] = second of two Nav1.7 columns (probably TP2)

Q: With “29 (GSVFINVKCRGSPECLPKCKEAIGKSAGKCMNGKCKCYP) [compound 29]” as the substance, how does the “Activity of 5HT3a with peptide (percentage of the reference compound)” value (5HT3a) read?
A: 91%

Q: And the “Activity of 5HT3a with peptide, expressed as a percentage of the reference compound” value (5HT3a)?
A: 122%

Q: And the “Activity of hERG with peptide, expressed as a percentage of the reference compound” value (hERG; peptide at 0.2 μM)?
A: 95%

Q: And the “Activity of hERG with peptide (percentage of the reference compound)” value (hERG; peptide at 20 μM)?
A: 78%

Q: What about the “Activity of Nav1.5 with peptide, expressed as a percentage of the reference compound” value (Nav1.5; [1]) of the same substance?
A: 110%

Q: And the “Activity of Nav1.5 with peptide, expressed as a percentage of the reference compound” value (Nav1.5; [2])?
A: 114%

Q: And the “Activity of Nav1.5 with peptide (percentage of the reference compound)” value (Nav1.5; [1])?
A: 103%

Q: What about the “Activity of Nav1.5 with peptide (percentage of the reference compound)” value (Nav1.5; [2]) of the same substance?
A: 99%

Q: And the “Activity of NR2B with peptide, expressed as a percentage of the reference compound” value (NR2B; peptide at 0.2 μM)?
A: 101%

Q: What about the “Activity of NR2B with peptide (percentage of the reference compound)” value (NR2B; peptide at 20 μM) of the same substance?
A: 82%

Q: What about the “Activity of Kv1.2 with peptide, expressed as a percentage of the reference compound” value (Kv1.2; peptide at 0.2 μM) of the same substance?
A: 77%

Q: What about the “Activity of Kv1.2 with peptide (percentage of the reference compound)” value (Kv1.2; peptide at 20 μM) of the same substance?
A: 42%

Q: What about the “Activity of Kv1.1 with peptide, expressed as a percentage of the reference compound” value (Kv1.1; peptide at 0.2 μM) of the same substance?
A: 97%

Q: What about the “Activity of Kv1.1 with peptide (percentage of the reference compound)” value (Kv1.1; peptide at 20 μM) of the same substance?
A: 64%

Q: What about the “Activity of Kv1.3 with peptide, expressed as a percentage of the reference compound” value (Kv1.3; peptide at 0.2 μM) of the same substance?
A: 21%

Q: And the “Activity of Kv1.3 with peptide (percentage of the reference compound)” value (Kv1.3; peptide at 20 μM)?
A: 0%

Q: And the “Activity of Kir2.1 with peptide, expressed as a percentage of the reference compound” value (Kir2.1; peptide at 0.2 μM)?
A: 103%

Q: And the “Activity of Kir2.1 with peptide (percentage of the reference compound)” value (Kir2.1; peptide at 20 μM)?
A: 97%

Q: What about the “Activity of a4b2 with peptide, expressed as a percentage of the reference compound” value (α4β2; peptide at 0.2 μM) of the same substance?
A: 108%

Q: And the “Activity of a4b2 with peptide (percentage of the reference compound)” value (α4β2; peptide at 20 μM)?
A: 101%

Q: What about the “Activity of Kv2.1 with peptide, expressed as a percentage of the reference compound” value (Kv2.1; peptide at 0.2 μM) of the same substance?
A: 91%

Q: What about the “Activity of Kv2.1 with peptide (percentage of the reference compound)” value (Kv2.1; peptide at 20 μM) of the same substance?
A: 121%

Q: And the “Activity of Cav2.1 with peptide, expressed as a percentage of the reference compound” value (Cav2.1; peptide at 0.2 μM)?
A: 100%

Q: And the “Activity of Cav2.1 with peptide (percentage of the reference compound)” value (Cav2.1; peptide at 20 μM)?
A: 111%

Q: What about the “Activity of Cav2.2 with peptide, expressed as a percentage of the reference compound” value (Cav2.2; peptide at 0.2 μM) of the same substance?
A: 116%

Q: And the “Activity of Cav2.2 with peptide (percentage of the reference compound)” value (Cav2.2; peptide at 20 μM)?
A: 100%

Q: And the “Activity of GABA with peptide, expressed as a percentage of the reference compound” value (GABA; peptide at 0.2 μM)?
A: 123%

Q: And the “Activity of GABA with peptide (percentage of the reference compound)” value (GABA; peptide at 20 μM)?
A: 104%

Q: What about the “Activity of Nav1.7 with peptide, expressed as a percentage of the reference compound” value (Nav1.7; [3]) of the same substance?
A: 97%

Q: What about the “Activity of Nav1.7 with peptide, expressed as a percentage of the reference compound” value (Nav1.7; [4]) of the same substance?
A: 111%

Q: And the “Activity of Nav1.7 with peptide (percentage of the reference compound)” value (Nav1.7; [3])?
A: 67%

Q: And the “Activity of Nav1.7 with peptide (percentage of the reference compound)” value (Nav1.7; [4])?
A: 62%

Q: And the “Activity of TRPV1 with peptide, expressed as a percentage of the reference compound” value (TRPV1; peptide at 0.2 μM)?
A: 109%

Q: And the “Activity of TRPV1 with peptide (percentage of the reference compound)” value (TRPV1; peptide at 20 μM)?
A: 86%

Q: And the “Activity of a3b4 with peptide, expressed as a percentage of the reference compound” value (α3β4; peptide at 0.2 μM)?
A: 108%

Q: What about the “Activity of a3b4 with peptide (percentage of the reference compound)” value (α3β4; peptide at 20 μM) of the same substance?
A: 98%

Q: And the “Activity of TRPA1 with peptide, expressed as a percentage of the reference compound” value (TRPA1; peptide at 0.2 μM)?
A: 89%

Q: What about the “Activity of TRPA1 with peptide (percentage of the reference compound)” value (TRPA1; peptide at 20 μM) of the same substance?
A: 109%

Q: What about the “Activity of NR2A with peptide, expressed as a percentage of the reference compound” value (NR2A; peptide at 0.2 μM) of the same substance?
A: 93%

Q: What about the “Activity of NR2A with peptide (percentage of the reference compound)” value (NR2A; peptide at 20 μM) of the same substance?
A: 87%
